Patent publication US20070105162A1, “Monovalent avidin and streptavidin compositions” (Massachusetts Institute of Technology, priority 2005, published 2007)

Assay: Biotin binding of avidin triple mutant (D4)
Method: After incubation at room temperature for 20 hr, the protein is precipitated by adding 50 μL to 200 μL 0.2 M ZnSO4 followed by 200 μL 0.2 M NaOH. The protein precipitate is pelleted by centrifugation at 16,500 g for 5 min. The biotin bound by D4 is calculated from the total ^3H-biotin added minus the ^3H-biotin in the supernatant. The Kd is obtained using a nonlinear regression analysis (one-site binding hyperbola) with SigmaPlot (Systat Software; Point Richmond, Calif.).
Methods provided in the Methods section above are used to make and test the monovalent avidin. We produce an avidin tetramer consisting of three subunits unable to bind biotin and one subunit that binds biotin as well as wild-type avidin. A triple mutant N12A, S16D, T35A is produced. […] The binding of this triple mutant (composed of “Dead” subunits-D) is so weak that it is difficult to measure. To generate monovalent avidin the wild-type subunit is first tagged with a His6-tag (“Alive” subunit-A). Then D and A subunits are combined at a molar ratio of 3:1 in guanidinium hydrochloride and refolded by rapidly diluting the mixture into PBS. This refold generates a mix of avidin tetramers of different compositions.

biotin binding of avidin triple mutant: negligible biotin binding
B1: D4 avidin: Avidin tetramer of four Dead subunits (N12A, S16D, T35A, SEQ ID NO:18) (protein)
chain: ARKCSLTGKWTADLGDNMTIGAVNSRGEFTGTYIAAVTATSNEIKESPLHGTQNTINKRTQPTFGFTVNWKFSESTTVFTGQCFIDRNGKEVLKTMWLLRSSVNDIGDDWKATRVGINIFTRLRTQKE
modifications: tetramer
